The record followed here is patent US20130136721A1, “Compositions and Methods of Generating a Differentiated Mesodermal Cell” (THE JOHNS HOPKINS UNIVERSITY, priority 2010, published 2013).

Entries after “also recorded” stand apart in the source; their conditions may differ.

The subject of one assay is H9 hESC. Description: Beating hEB assay (contracting hEB after forced aggregation cardiac differentiation). It is filed as cell-based, human. The following applies: for effect on cardiac differentiation, phase 2 medium: supplement in d0-d2 medium; for effect on cardiac differentiation, phase 2 medium / effect on cardiac differentiation, phase 3 medium: contracting hEB d9; for effect on cardiac differentiation, phase 3 medium: supplement in d2-d4 medium. The source says: The cardiac differentiation protocol was divided into four distinct phases for optimization (FIG. 3A): phase 1: uniform undifferentiated growth; phase 2: hEB formation/mesoderm induction; phase 3: hEB cardiac specification; phase 4: contracting cardiomyocyte development. […] After an initial round of optimizations had been completed, optimizations was repeated a second time to account for the new media formulations and then a third time to optimize the final media formulation. In some cases fourth and fifth repeats were performed to improve the statistical power of the results. For each variable tested, the bell-curve distribution of dose-response was determined. Results shown are averages of the 2nd-5th replicates (FIG. 2B).
For forced aggregation hEB differentiations, confluent hESC or hiPSC which had been grown on a commercially available extracellular matrix, Geltrex (Invitrogen) as monolayers for 3 to 13 passages were passaged with TrypLE Select and seeded at 2.5×10^6 per T25 flask. After 24 hours growth, cells were washed with PBS and treated with room temperature TrypLE Select for 1 minute at 37° C. Cells were seeded at 5000 cells per well in 96-well V-bottom uncoated plates (249952, NUNC) in 100 μL per well RPMI+PVA medium consisting of RPMI Media 1640 (with L-Glutamine), 4 mg mL-1 polyvinyl alcohol (P8136, Sigma, dissolved in RPMI at 4° C. for at least 72 hours, mixing by inversion every day), 1% chemically defined lipid concentrate, 10 μg mL-1 recombinant human insulin (Sigma), 400 μM 1-thioglycerol (Sigma), 25 ng mL-1 BMP4 and 5 ng mL-1 FGF2 (both from R&D systems), 1 μM Y-27632 (Calbiochem). This medium is not stable and was made fresh for each experiment. After 48 hours (on day 2) medium was aspirated with a Costar 8-channel aspirator (Corning) and replaced with RPMI+FBS medium consisting RPMI Media 1640, 20% characterized FBS (Hyclone), 400 μM 1-thioglycerol. On day 4 media was changed to RPMI+PVA without growth factors and hEB were transferred to 96-well U-bottom tissue culture treated plates (650180, Greiner Bio-One). Media was changed on d7 and every 3 days afterwards. hEB were visually assessed for contraction on d9 using a Nikon Eclipse Ti inverted tissue culture microscope with a TOKAI-HIT heated stage (Nikon). Images were captured using NIS-Elements (Nikon). […] For traditional cardiac differentiations using FBS, undirected differentiation was performed as previously described (Kehat et al. J Clin Invest 108, 407-414 (2001)): briefly, confluent H9 hESC grown as colonies on MEF were treated with collagenase IV for 5 minutes at 37° C. then washed from the plate using a 5 mL pipette. Cell clusters were then transferred to Petri dishes in 20% FBS medium for 7 days. hEB were then transferred to gelatin coated tissue culture plates. Media was changed every 3 days.
One single replicate consists of one 96-well plate. Repeat replicates were performed 1-4 months apart using a different vial of cells. Each experiment was repeated at least 3 times representing at least 288 hEB. Total number of hEB assessed in this work exceeds 80,000. Wells in which no hEB was detected due to pipeting error were excluded and accounted for approximately 1-5% of wells. P-values were established using unpaired two-tailed Student's t-test.

The next assay has as its system iPS(IMR90)-1 hiPSC. The assay is described as above. It is filed as cell-based, human. The settings on record: d0-d2. The source says:
The cardiac differentiation protocol was divided into four distinct phases for optimization (FIG. 3A): phase 1: uniform undifferentiated growth; phase 2: hEB formation/mesoderm induction; phase 3: hEB cardiac specification; phase 4: contracting cardiomyocyte development. A simple beating hEB assay was used to sequentially assess improvements in cardiac differentiation in each of these four phases by counting the number of hEB contracting after nine days of differentiation, a time point that was identified as the day of maximum percentage contraction in the enhanced ‘prototype’ version of the protocol (FIG. 1B). After an initial round of optimizations had been completed, optimizations was repeated a second time to account for the new media formulations and then a third time to optimize the final media formulation. […] For each variable tested, the bell-curve distribution of dose-response was determined. […]
For forced aggregation hEB differentiations, confluent hESC or hiPSC which had been grown on a commercially available extracellular matrix, Geltrex (Invitrogen) as monolayers for 3 to 13 passages were passaged with TrypLE Select and seeded at 2.5×10^6 per T25 flask. […] Media was changed on d7 and every 3 days afterwards. hEB were visually assessed for contraction on d9 using a Nikon Eclipse Ti inverted tissue culture microscope with a TOKAI-HIT heated stage (Nikon). […]

B1: transferrin: bovine transferrin media supplement (protein, UniProt Q29443 20-704, looked up)
Serotransferrin: DPERTVRWCTISTHEANKCASFRENVLRILESGPFVSCVKKTSHMDCIKAISNNEADAVTLDGGLVYEAGLKPNNLKPVVAEFHGTKDNPQTHYYAVAVVKKDTDFKLNELRGKKSCHTGLGRSAGWNIPMAKLYKELPDPQESIQRAAANFFSASCVPCADQSSFPKLCQLCAGKGTDKCACSNHEPYFGYSGAFKCLMEGAGDVAFVKHSTVFDNLPNPEDRKNYELLCGDNTRKSVDDYQECYLAMVPSHAVVARTVGGKEDVIWELLNHAQEHFGKDKPDNFQLFQSPHGKDLLFKDSADGFLKIPSKMDFELYLGYEYVTALQNLRESKPPDSSKDECMVKWCAIGHQERTKCDRWSGFSGGAIECETAENTEECIAKIMKGEADAMSLDGGYLYIAGKCGLVPVLAENYKTEGESCKNTPEKGYLAVAVVKTSDANINWNNLKDKKSCHTAVDRTAGWNIPMGLLYSKINNCKFDEFFSAGCAPGSPRNSSLCALCIGSEKGTGKECVPNSNERYYGYTGAFRCLVEKGDVAFVKDQTVIQNTDGNNNEAWAKNLKKENFEVLCKDGTRKPVTDAENCHLARGPNHAVVSRKDKATCVEKILNKQQDDFGKSVTDCTSNFCLFQSNSKDLLFRDDTKCLASIAKKTYDSYLGDDYVRAMTNLRQCSTSKLLEACTFHKP
B1: in the assay on H9 hESC, the “effect on cardiac differentiation, phase 2 medium” value is recorded as “either did not further enhance differentiation or had negative effects on differentiation” and the “effect on cardiac differentiation, phase 3 medium” value is given as “Neither transferrin, L-ascorbic acid, lipids or NEAA enhanced this phase of differentiation”. Besides, in the assay with H9 hESC (supplement in d4 onwards medium), the “effect on cardiac differentiation, phase 4 medium” value is “not required”.

B2: activin A: growth factor titrated between 1-100 ng mL-1 (protein, UniProt P08476 311-426, looked up)
Inhibin beta A chain: GLECDGKVNICCKKQFFVSFKDIGWNDWIIAPSGYHANYCEGECPSHIAGTSGSSLSFHSTVINHYRMRGHSPFANLKSCCVPTKLRPMSMLYYDDGQNIIKKDIQNMIVEECGCS
As for B2, the “effect on cardiac differentiation, phase 2 medium” value in the assay on H9 hESC is on record as “none were found to have the same potency as BMP4”.

B3: NODAL: growth factor titrated between 1-100 ng mL-1 (protein, UniProt Q96S42 238-347, looked up)
Nodal homolog: HHLPDRSQLCRKVKFQVDFNLIGWGSWIIYPKQYNAYRCEGECPNPVGEEFHPTNHAYIQSLLKRYQPHRVPSTCCAPVKTKPLSMLYVDNGRVLLDHHKDMIVEECGCL
With B3, the “effect on cardiac differentiation, phase 2 medium” value with H9 hESC is “none were found to have the same potency as BMP4”.

B4: BMP6: growth factor titrated between 1-100 ng mL-1 (protein, UniProt P22004 375-513, looked up)
Bone morphogenetic protein 6: SASSRRRQQSRNRSTQSQDVARVSSASDYNSSELKTACRKHELYVSFQDLGWQDWIIAPKGYAANYCDGECSFPLNAHMNATNHAIVQTLVHLMNPEYVPKPCCAPTKLNAISVLYFDDNSNVILKKYRNMVVRACGCH
Consider B4, for which the “effect on cardiac differentiation, phase 2 medium” value in the assay on H9 hESC is “none were found to have the same potency as BMP4”.

B5: DKK1: additional supplement to serum-free d2-d4 medium (protein, UniProt O94907 32-266, looked up)
Dickkopf-related protein 1: TLNSVLNSNAIKNLPPPLGGAAGHPGSAVSAAPGILYPGGNKYQTIDNYQPYPCAEDEECGTDEYCASPTRGGDAGVQICLACRKRRKRCMRHAMCCPGNYCKNGICVSSDQNHFRGEIEETITESFGNDHSTLDGYSRRTTLSSKMYHTKGQEGSVCLRSSDCASGLCCARHFWSKICKPVLKEGQVCTKHRRKGSHGLEIFQRCYCGEGLSCRIQKDHHQASNSSRLHTCQRH
B5: the “effect on cardiac differentiation, xeno- and serum-free d2-d4 medium” value with H9 hESC (supplement in serum-free d2-d4 medium) was “did not further enhance differentiation”.

B6: BMP4: bone morphogenic protein 4, mesodermal morphogen growth factor (protein, UniProt P12644 293-408, looked up)
Bone morphogenetic protein 4: SPKHHSQRARKKNKNCRRHSLYVDFSDVGWNDWIVAPPGYQAFYCHGDCPFPLADHLNSTNHAIVQTLVNSVNSSIPKACCVPTELSAISMLYLDEYDKVVLKNYQEMVVEGCGCR
B6: the “most effective BMP4 concentration” value was 25 ng/mL in the assay with H9 hESC (d0-d2) and 5 ng/mL with iPS(IMR90)-1 hiPSC. Also, in the assay with H9 hESC, the “effect on cardiac differentiation, phase 3 medium” value is reported as “did not further enhance this phase; also recorded: did not enhance cardiac differentiation”.

B7: TDGF1: growth factor titrated between 1-100 ng mL-1 (protein, UniProt P13385 31-150, looked up)
Protein Cripto: LGHQEFARPSRGYLAFRDDSIWPQEEPAIRPRSSQRVPPMGIQHSKELNRTCCLNGGTCMLGSFCACPPSFYGRNCEHDVRKENCGSVPHDTWLPKKCSLCKCWHGQLRCFPQAFLPGCD
As for B7, the “effect on cardiac differentiation, phase 2 medium” value with H9 hESC is listed as “none were found to have the same potency as BMP4”.
